From patent publication US20250295803A1, “5T4 ANTIBODY-DRUG CONJUGATES AND USES THEREOF” (EXELIXIS, INC., priority 2022, published 2025)

T1: HEK293 and CHO cells transfected to express rat 5T4 (Rattus norvegicus, UniProt Q5PQV5)
T1 construct: expressed in transfected cells; host or cells: HEK293 and CHO
T1 sequence (Q5PQV5 32-426): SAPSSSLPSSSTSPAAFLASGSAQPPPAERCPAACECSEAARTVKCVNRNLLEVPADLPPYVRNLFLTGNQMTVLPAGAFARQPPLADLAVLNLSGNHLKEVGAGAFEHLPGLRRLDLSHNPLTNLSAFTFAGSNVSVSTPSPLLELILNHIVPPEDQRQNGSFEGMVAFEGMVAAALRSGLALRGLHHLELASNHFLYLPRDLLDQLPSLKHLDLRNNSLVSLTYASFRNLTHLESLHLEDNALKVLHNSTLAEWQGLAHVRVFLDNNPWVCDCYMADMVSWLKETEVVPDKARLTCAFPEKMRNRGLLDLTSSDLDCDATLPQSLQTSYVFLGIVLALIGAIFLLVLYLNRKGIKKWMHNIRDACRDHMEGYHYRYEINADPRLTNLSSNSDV

T2: unconjugated human TPBG/5T4 protein with a c-terminal polyhistidine and Avi tag (AcroBiosystems Cat. No. … (human, UniProt Q13641 32-355))
T2 construct: Bought protein; also called Acro TPGH52E5; Acro Catalog No. TPGH52E; not shown: C-terminal polyhistidine and Avi tag
T2 sequence: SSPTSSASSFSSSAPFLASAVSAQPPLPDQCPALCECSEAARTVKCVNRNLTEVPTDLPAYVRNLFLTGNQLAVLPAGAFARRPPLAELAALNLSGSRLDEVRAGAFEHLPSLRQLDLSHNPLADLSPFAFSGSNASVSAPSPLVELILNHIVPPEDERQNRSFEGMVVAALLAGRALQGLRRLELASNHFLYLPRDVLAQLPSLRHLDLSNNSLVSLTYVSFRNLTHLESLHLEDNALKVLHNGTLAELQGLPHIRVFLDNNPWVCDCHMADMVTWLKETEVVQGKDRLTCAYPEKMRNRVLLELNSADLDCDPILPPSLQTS


Key:
[1] = Standup monolayer adsorption chromatography (SMAC) developability; assay type: physicochemical; details: 1 mg/mL in Dulbecco's PBS pH 7.4
Method: Antibodies that were selected for binding to 5T4, such as those described in Examples 2 and 3, were tested by various methods to assess developability. For example, various chromatographic methods, including size exclusion chromatography (SEC), hydrophobic interaction chromatography (HIC), and standup monolayer adsorption chromatography (SMAC) were employed to assess factors, such as monomer percentage, solubility, and antibody aggregation or precipitation.
Standup monolayer adsorption chromatography (SMAC) analysis was performed using a 4.6 mm ID×300 mm Zenix SEC 300 column (Sepax Technologies, PN 213300P-4630) with a 4.6 mm×50 mm guard column (PN 213300P-4605) on an Agilent 1100 HPLC. Antibodies were normalized to 1 mg/mL concentration in Dulbecco's PBS (pH 7.4, without Ca^2+/Mg^2+) and clarified via centrifugation to pellet particulates while still retaining soluble aggregates. The mobile phase buffer was Dulbecco's PBS (pH 7.4, without Ca^2+/Mg^2+) at 2× concentration (diluted from 10× stock concentration). For each sample, 10 μL was loaded and isocratically eluted at 0.4 mL/minute over 32 minutes at ambient temperature. Absorbance was monitored at 280 nm. Sample retention time was calculated and compared to a set of standard controls to identify antibodies with increased retention time (increased propensity to form aggregates and/or increased hydrophobic/electrostatic interactions) as the column stationary phase along with mobile phase selection promotes secondary interactions in addition to molecular sizing. Data analysis was performed using Agilent ChemStation B.04.03 SP1.

[2] = molecular target: T1, HEK293 and CHO cells transfected to express rat 5T4; test: Cell binding to transfected HEK293 and CHO cells, rat 5T4; assay type: cell-based
Method: Unconjugated antibodies were tested for their ability to bind to HEK293 and CHO cells transfected to express human, cyno, rat, or mouse 5T4.

[3] = molecular target: T2, unconjugated human TPBG/5T4 protein …; test: ELISA on coated human 5T4 His-Avi (Acro TPG-H52E5); antibody condition: pH 8.5 Day 4
Method: (§1) A. Normal Binding Unconjugated antibodies were tested for their ability to bind to human 5T4 (hu5T4) using ELISA. On Day 1, unconjugated human TPBG/5T4 protein with a c-terminal polyhistidine and Avi (AVITAG™) tag (AcroBiosystems (Newark, DE, USA), Cat. No. TPG-H52E5) was diluted 2 μg/mL in PBS, mixed thoroughly, plated 100 μL per well in a 96-well plate (Nunc MAXISORP®) and incubated overnight at 4° C.

[4] = molecular target: T2, unconjugated human TPBG/5T4 protein …; test: ELISA on coated human 5T4 His-Avi (Acro TPG-H52E5); antibody condition: pH 5.5 Day 0
Method: as §1
2. Low pH Stress Test. Several unconjugated antibodies were tested for their ability to bind to 5T4 using ELISA under acidic (low pH) conditions. Solutions of 1 mg/mL to 10 mg/mL of antibody in […] were prepared and stored at 37° C. for 1 to 2 weeks.

[5] = molecular target: T2, unconjugated human TPBG/5T4 protein …; test: ELISA on coated human 5T4 His-Avi (Acro TPG-H52E5); antibody condition: pH 8.5 Day 14
Method: as §1

[6] = molecular target: T2, unconjugated human TPBG/5T4 protein …; test: ELISA on coated human 5T4 His-Avi (Acro TPG-H52E5); antibody condition: PBS + H2O2 time 24 hr.
Method: as §1
3. Oxidative Stress. Several unconjugated antibodies were tested for their ability to bind to 5T4 using ELISA in an oxidative environment. […]

[7] = molecular target: T2, unconjugated human TPBG/5T4 protein …; test: Octet, antibody on AHC sensors, human 5T4 in solution (monovalent); Acro TPGH52E5 Lot B465-87AF1-JP
Method: Monovalent binding assays were employed to determine the relative affinity of each 5T4 binder obtained by the phage display in Example 1 to human 5T4. Human 5T4 was purchased from Acro Biosystems (Acro Catalog No. TPGH52E) and also produced separately. The monovalent interaction of binders to human 5T4 was monitored using an Octet (Pall ForteBio) instrument. For these assays, 36 nM antibody was immobilized on anti-human Fc (AHC) sensors in 1× kinetic buffer (ForteBio). The sensors were then dipped in wells containing a 3× serial dilution of human 5T4 ranging from 1 μM to 1.37 nM. The association was allowed to reach equilibrium. Sensors were then moved to wells containing only 1× kinetic buffer and allowed to dissociate to equilibrium. Association and dissociation rates were measured and from these, monovalent KDS were calculated using the onboard analysis software (ForteBio).

Row | EC50 [3] [nM] | EC50 [4] [nM] | EC50 [5] [nM] | EC50 [6] [nM] | Kd [7] [nM] | Molecule | developability based on SMAC analysis [1] | reactivity to cells transfected to express rat 5T4 [2]
1 | 0.15 | 0.164 | 0.167 | 0.183 | 21.1 | mAbA17 (antibody, V domains shown, also called Antibody mAbA17) VH: EVQLVESGGGLVQPGGSLRLSCAASGFTFSRYWIHWVRQAPGKGLEWVAAIFPYSGSTLYADSVKGRFTISADTSKNTAYLQMNSLRAEDTAVYYCARSPSRSILPSGLDYWGQGTLVTVSS VL: DIQMTQSPSSLSASVGDRVTITCRASQSVSSAVAWYQQKPGKAPKLLIYSASSLYSGVPSRFSGSRSGTDFTLTISSLQPEDFATYYCQQGDGSPYTFGQGTKVEIKR | – | –
2 | 0.133 | 0.124 | 0.131 | 0.19 | 11.2 | mAbA15 (antibody, V domains shown, also called Antibody mAbA15) VH: EVQLVESGGGLVQPGGSLRLSCAASGFTFSSYYIHWVRQAPGKGLEWVAYITSTGSYTEYADSVKGRFTISADTSKNTAYLQMNSLRAEDTAVYYCARYDRSTRYSGLDYWGQGTLVTVSS VL: DIQMTQSPSSLSASVGDRVTITCRASQSVSSAVAWYQQKPGKAPKLLIYSASSLYSGVPSRFSGSRSGTDFTLTISSLQPEDFATYYCQQAYATPVTFGQGTKVEIKR | – | –

The remaining lines, values behind:

Row | Molecule | EC50 [3] [nM] | EC50 [4] [nM] | EC50 [5] [nM] | EC50 [6] [nM] | Kd [7] [nM] | developability based on SMAC analysis [1] | reactivity to cells transfected to express rat 5T4 [2]
3 | mAbA4: 5T4 antibody comprising VH of SEQ ID NO:25 and VL of SEQ ID NO:26 (antibody, V domains shown, Antibody mAbA4 VH Sequence; Antibody mAbA4 VL Sequence) VH: EVQLVESGGGLVQPGGSLRLSCAASGFTFSRYYIHWVRQAPGKGLEWVAFISPGGSYTYYADSVKGRFTISADTSKNTAYLQMNSLRAEDTAVYYCAREYYSMGVLDYWGQGTLVTVSS VL: DIQMTQSPSSLSASVGDRVTITCRASQSVSSAVAWYQQKPGKAPKLLIYSASSLYSGVPSRFSGSRSGTDFTLTISSLQPEDFATYYCQQAYESPYTFGQGTKVEIK | – | – | – | – | – | strong developability | not to cells transfected to express rat or mouse 5T4
4 | mAbA15: 5T4 antibody comprising VH of SEQ ID NO:44 and VL of SEQ ID NO:45 (antibody, V domains shown, Antibody mAbA15 VH Sequence; Antibody mAbA15 VL Sequence) VH: EVQLVESGGGLVQPGGSLRLSCAASGFTFSSYYIHWVRQAPGKGLEWVAYITSTGSYTEYADSVKGRFTISADTSKNTAYLQMNSLRAEDTAVYYCARYDRSTRYSGLDYWGQGTLVTVSS VL: DIQMTQSPSSLSASVGDRVTITCRASQSVSSAVAWYQQKPGKAPKLLIYSASSLYSGVPSRFSGSRSGTDFTLTISSLQPEDFATYYCQQAYATPVTFGQGTKVEIK | – | – | – | – | – | strong developability | not to cells transfected to express rat or mouse 5T4
5 | mAbA4 (antibody, V domains shown, also called Antibody mAbA4) VH: EVQLVESGGGLVQPGGSLRLSCAASGFTFSRYYIHWVRQAPGKGLEWVAFISPGGSYTYYADSVKGRFTISADTSKNTAYLQMNSLRAEDTAVYYCAREYYSMGVLDYWGQGTLVTVSS VL: DIQMTQSPSSLSASVGDRVTITCRASQSVSSAVAWYQQKPGKAPKLLIYSASSLYSGVPSRFSGSRSGTDFTLTISSLQPEDFATYYCQQAYESPYTFGQGTKVEIKR | 0.114 | 0.133 | 0.136 | 0.393 | 30.2 | – | –
6 | mAbA17: 5T4 antibody comprising VH of SEQ ID NO:62 and VL of SEQ ID NO:63 (antibody, V domains shown, Antibody mAbA17 VH Sequence; Antibody mAbA17 VL Sequence) VH: EVQLVESGGGLVQPGGSLRLSCAASGFTFSRYWIHWVRQAPGKGLEWVAAIFPYSGSTLYADSVKGRFTISADTSKNTAYLQMNSLRAEDTAVYYCARSPSRSILPSGLDYWGQGTLVTVSS VL: DIQMTQSPSSLSASVGDRVTITCRASQSVSSAVAWYQQKPGKAPKLLIYSASSLYSGVPSRFSGSRSGTDFTLTISSLQPEDFATYYCQQGDGSPYTFGQGTKVEIK | – | – | – | – | – | strong developability | not to cells transfected to express rat or mouse 5T4
